According to patent US20230279137A1 (EVOTEC INTERNATIONAL, published 2023):

Columns and labels:
human CD40 = human CD40 (human, UniProt P25942 21-277); assay: cell-based or functional assay
[1] = biological target: T1, human type I IFN receptor on HEK-Blue IFN-α/β cells (human, UniProt P17181 28-557; P48551 27-515); assay: cell-based or functional assay
T1 sequence (looked up) 1: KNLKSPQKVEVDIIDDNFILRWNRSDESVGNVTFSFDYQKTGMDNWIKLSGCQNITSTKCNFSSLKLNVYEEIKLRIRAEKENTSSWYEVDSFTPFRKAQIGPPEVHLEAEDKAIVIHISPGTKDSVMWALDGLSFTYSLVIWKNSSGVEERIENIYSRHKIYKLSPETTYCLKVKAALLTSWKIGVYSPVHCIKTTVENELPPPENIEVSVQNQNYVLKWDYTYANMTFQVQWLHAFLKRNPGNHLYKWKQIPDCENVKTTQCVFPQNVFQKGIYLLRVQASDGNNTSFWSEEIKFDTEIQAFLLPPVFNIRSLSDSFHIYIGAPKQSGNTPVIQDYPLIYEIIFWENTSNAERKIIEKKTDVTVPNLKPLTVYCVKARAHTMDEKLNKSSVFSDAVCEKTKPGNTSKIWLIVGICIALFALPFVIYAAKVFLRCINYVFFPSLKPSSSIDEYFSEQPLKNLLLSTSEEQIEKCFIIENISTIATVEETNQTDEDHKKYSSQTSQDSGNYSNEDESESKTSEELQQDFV
T1 sequence (looked up) 2: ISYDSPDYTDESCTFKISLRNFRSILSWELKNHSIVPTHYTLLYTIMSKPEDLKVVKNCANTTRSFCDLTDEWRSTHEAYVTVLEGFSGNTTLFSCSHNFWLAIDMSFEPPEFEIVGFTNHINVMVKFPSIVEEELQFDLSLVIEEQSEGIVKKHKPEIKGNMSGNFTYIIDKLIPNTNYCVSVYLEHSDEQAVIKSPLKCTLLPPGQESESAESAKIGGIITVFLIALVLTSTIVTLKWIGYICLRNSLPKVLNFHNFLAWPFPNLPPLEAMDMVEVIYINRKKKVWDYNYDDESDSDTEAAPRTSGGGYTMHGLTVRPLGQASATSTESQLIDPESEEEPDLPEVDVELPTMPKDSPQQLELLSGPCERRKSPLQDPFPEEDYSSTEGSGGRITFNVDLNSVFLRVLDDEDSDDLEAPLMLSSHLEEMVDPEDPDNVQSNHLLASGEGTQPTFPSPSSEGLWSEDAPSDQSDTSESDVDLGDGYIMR

human CD40, sequence (P25942 21-277): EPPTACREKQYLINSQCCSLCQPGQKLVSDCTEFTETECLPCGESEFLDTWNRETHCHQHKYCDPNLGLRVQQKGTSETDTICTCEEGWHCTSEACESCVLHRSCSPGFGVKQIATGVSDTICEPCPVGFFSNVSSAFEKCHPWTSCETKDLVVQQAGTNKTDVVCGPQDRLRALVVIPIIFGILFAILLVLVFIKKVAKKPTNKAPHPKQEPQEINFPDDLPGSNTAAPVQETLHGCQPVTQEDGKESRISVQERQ

Binder	CD40 EC50 (ng/mL), NFκB-SEAP reporter in HEK-Blue CD40L cells (human CD40)	IFNβ EC50 (ng/mL), SEAP reporter in HEK-Blue IFN-α/β cells [1]
IFA1 (antibody, human IgG2, kappa) light: DIQMTQSPSSVSASVGDRVTITCRASQGIYSWLAWYQQKPGKAPNLLIYTASTLQSGVPSRFSGSGSGTDFTLTISSLQPEDFATYYCQQANIFPLTFGGGTKVEIKRTVAAPSVFIFPPSDEQLKSGTASVVCLLNNFYPREAKVQWKVDNALQSGNSQESVTEQDSKDSTYSLSSTLTLSKADYEKHKVYACEVTHQGLSSPVTKSFNRGECAEAAAKEAAAKAMSYNLLGFLQRSSNFQCQKLLWQLNGRLEYCLKDRMNFDIPEEIKQLQQFQKEDAALTIYEMLQNIFAIFRQDSSSTGWNETIVENLLANVYHQINHLKTVLEEKLEKEDFTRGKLMSSLHLKRYYGRILHYLKAKEYSHCAWTIVRVEILRNFYFINRLTGYLRN heavy: not shown	74.1 ng/mL	1.64 ng/mL
IFA2 (antibody, human IgG2, kappa) light: DIQMTQSPSSVSASVGDRVTITCRASQGIYSWLAWYQQKPGKAPNLLIYTASTLQSGVPSRFSGSGSGTDFTLTISSLQPEDFATYYCQQANIFPLTFGGGTKVEIKRTVAAPSVFIFPPSDEQLKSGTASVVCLLNNFYPREAKVQWKVDNALQSGNSQESVTEQDSKDSTYSLSSTLTLSKADYEKHKVYACEVTHQGLSSPVTKSFNRGECAEAAAKEAAAKAMSYNLLGFLQRSSNFQSQKLLWQLNGRLEYCLKDRMNFDIPEEIKQLQQFQKEDAALTIYEMLQNIFAIFRQDSSSTGWNETIVENLLANVYHQINHLKTVLEEKLEKEDFTRGKLMSSLHLKRYYGRILHYLKAKEYSHCAWTIVRVEILRNFYFINRLTGYLRN heavy: not shown	111 ng/mL	0.14 ng/mL
IFA8 (antibody, human IgG2, kappa) heavy: not shown light: DIQMTQSPSSVSASVGDRVTITCRASQGIYSWLAWYQQKPGKAPNLLIYTASTLQSGVPSRFSGSGSGTDFTLTISSLQPEDFATYYCQQANIFPLTFGGGTKVEIKRTVAAPSVFIFPPSDEQLKSGTASVVCLLNNFYPREAKVQWKVDNALQSGNSQESVTEQDSKDSTYSLSSTLTLSKADYEKHKVYACEVTHQGLSSPVTKSFNRGEC	39.7 ng/mL	2.9 ng/mL
IFA11 (antibody, human IgG2, kappa) heavy: not shown light: DIQMTQSPSSVSASVGDRVTITCRASQGIYSWLAWYQQKPGKAPNLLIYTASTLQSGVPSRFSGSGSGTDFTLTISSLQPEDFATYYCQQANIFPLTFGGGTKVEIKRTVAAPSVFIFPPSDEQLKSGTASVVCLLNNFYPREAKVQWKVDNALQSGNSQESVTEQDSKDSTYSLSSTLTLSKADYEKHKVYACEVTHQGLSSPVTKSFNRGEC	42.8 ng/mL	1.78 ng/mL
IFA10 (antibody, human IgG2, kappa) heavy: not shown light: DIQMTQSPSSVSASVGDRVTITCRASQGIYSWLAWYQQKPGKAPNLLIYTASTLQSGVPSRFSGSGSGTDFTLTISSLQPEDFATYYCQQANIFPLTFGGGTKVEIKRTVAAPSVFIFPPSDEQLKSGTASVVCLLNNFYPREAKVQWKVDNALQSGNSQESVTEQDSKDSTYSLSSTLTLSKADYEKHKVYACEVTHQGLSSPVTKSFNRGEC	26.5 ng/mL	4.5 ng/mL
IFA9 (antibody, human IgG2, kappa) heavy: not shown light: DIQMTQSPSSVSASVGDRVTITCRASQGIYSWLAWYQQKPGKAPNLLIYTASTLQSGVPSRFSGSGSGTDFTLTISSLQPEDFATYYCQQANIFPLTFGGGTKVEIKRTVAAPSVFIFPPSDEQLKSGTASVVCLLNNFYPREAKVQWKVDNALQSGNSQESVTEQDSKDSTYSLSSTLTLSKADYEKHKVYACEVTHQGLSSPVTKSFNRGEC	42.6 ng/mL	0.7 ng/mL

Other lines, results leading:

CD40 EC50 (ng/mL), NFκB-SEAP reporter in HEK-Blue CD40L cells (human CD40)	IFNβ EC50 (ng/mL), SEAP reporter in HEK-Blue IFN-α/β cells [1]	Binder
182 ng/mL	2.34 ng/mL	IFA20 (antibody, human IgG2, kappa) light: DIQMTQSPSSVSASVGDRVTITCRASQGIYSWLAWYQQKPGKAPNLLIYTASTLQSGVPSRFSGSGSGTDFTLTISSLQPEDFATYYCQQANIFPLTFGGGTKVEIKRTVAAPSVFIFPPSDEQLKSGTASVVCLLNNFYPREAKVQWKVDNALQSGNSQESVTEQDSKDSTYSLSSTLTLSKADYEKHKVYACEVTHQGLSSPVTKSFNRGECAEAAAKEAAAKAAEAAAKEAAAKAMSYNLLGFLQRSSNFQSQKLLWQLNGRLEYCLKDRMNFDIPEEIKQLQQFQKEDAALTIYEMLQNIFAIFRQDSSSTGWNETIVENLLANVYHQINHLKTVLEEKLEKEDFTRGKLMSSLHLKRYYGRILHYLKAKEYSHCAWTIVRVEILRNFYFINRLTGYLRN heavy: not shown
110 ng/mL	1.3 ng/mL	IFA19 (antibody, human IgG2, kappa) light: DIQMTQSPSSVSASVGDRVTITCRASQGIYSWLAWYQQKPGKAPNLLIYTASTLQSGVPSRFSGSGSGTDFTLTISSLQPEDFATYYCQQANIFPLTFGGGTKVEIKRTVAAPSVFIFPPSDEQLKSGTASVVCLLNNFYPREAKVQWKVDNALQSGNSQESVTEQDSKDSTYSLSSTLTLSKADYEKHKVYACEVTHQGLSSPVTKSFNRGECSGGTSGSTSGTGSMSYNLLGFLQRSSNFQSQKLLWQLNGRLEYCLKDRMNFDIPEEIKQLQQFQKEDAALTIYEMLQNIFAIFRQDSSSTGWNETIVENLLANVYHQINHLKTVLEEKLEKEDFTRGKLMSSLHLKRYYGRILHYLKAKEYSHCAWTIVRVEILRNFYFINRLTGYLRN heavy: not shown
105 ng/mL	3.64 ng/mL	IFA12 (antibody, human IgG2, kappa) light: DIQMTQSPSSVSASVGDRVTITCRASQGIYSWLAWYQQKPGKAPNLLIYTASTLQSGVPSRFSGSGSGTDFTLTISSLQPEDFATYYCQQANIFPLTFGGGTKVEIKRTVAAPSVFIFPPSDEQLKSGTASVVCLLNNFYPREAKVQWKVDNALQSGNSQESVTEQDSKDSTYSLSSTLTLSKADYEKHKVYACEVTHQGLSSPVTKSFNRGECPAPAMSYNLLGFLQRSSNFQCQKLLWQLNGRLEYCLKDRMNFDIPEEIKQLQQFQKEDAALTIYEMLQNIFAIFRQDSSSTGWNETIVENLLANVYHQINHLKTVLEEKLEKEDFTRGKLMSSLHLKRYYGRILHYLKAKEYSHCAWTIVRVEILRNFYFINRLTGYLRN heavy: not shown
192 ng/mL	0.7 ng/mL	IFA13 (antibody, human IgG2, kappa) light: DIQMTQSPSSVSASVGDRVTITCRASQGIYSWLAWYQQKPGKAPNLLIYTASTLQSGVPSRFSGSGSGTDFTLTISSLQPEDFATYYCQQANIFPLTFGGGTKVEIKRTVAAPSVFIFPPSDEQLKSGTASVVCLLNNFYPREAKVQWKVDNALQSGNSQESVTEQDSKDSTYSLSSTLTLSKADYEKHKVYACEVTHQGLSSPVTKSFNRGECPAPAMSYNLLGFLQRSSNFQSQKLLWQLNGRLEYCLKDRMNFDIPEEIKQLQQFQKEDAALTIYEMLQNIFAIFRQDSSSTGWNETIVENLLANVYHQINHLKTVLEEKLEKEDFTRGKLMSSLHLKRYYGRILHYLKAKEYSHCAWTIVRVEILRNFYFINRLTGYLRN heavy: not shown
